Test results from WO2023190852A1.

Biological target: RBD derived from the Omicron strain (BA.3 strain) (SARS-CoV-2)

Substance	binding inhibition rate (%)
AZD8895 (antibody)	< 80
AZD1061 (antibody)	< 80
S309 (antibody)	< 80
REGN10987 (antibody)	< 80
LY_CoV16 (antibody)	< 80
ADG2 (antibody)	< 80
LY_CoV555 (antibody)	< 80
REGN10933 (antibody)	< 80
